Columns and labels:
endogenous α-synuclein = molecular target: T1, endogenous α-synuclein (Rattus norvegicus, UniProt P37377); assay: α-synuclein level in MPP+-treated ventral midbrain cultures, immunoblot; format: cell-based; details: 25 μM, 48 hrs, MPP+ 20 μM
T1 construct: endogenous in cells; host or cells: primary rat cortical neurons (14 DIV) and primary rat ventral midbrain neurons (3 DIV)
Procedure: (§1) Primary rat neuron cultures were prepared from embryos of pregnant Sprague-Dawley rats (E18). The experimental protocol was approved by the University of British Columbia Animal Care Committee. Briefly, the cortical tissue or ventral midbrain tissue was isolated into ice cold HBSS (Invitrogen, 14170-112) and then digested with 0.25% trypsin-EDTA at 37° C. for 30 min. After washing with warm DMEM (supplemented with 10% FBS) three times, neurons were suspended in neuron culture media and dissociated by trituration using varying sizes of pipettes. Neurons were then centrifuged, and the pellet was re-suspended in culture media, washed twice with culture media, and plated on the poly-D-lysine-coated plates. Neuron culture was maintained in the 37° C. incubator with 95% O2 and 5% CO2. The morning after culturing, 2/3 of the neuron culture media was replaced with fresh neuron culture media. Media was then replaced every 3-4 days. […]
(§2) Brain tissues or cultured cells were lysed on ice in the lysis buffer and then the solution was centrifuged at 14,000 rpm for 10 min at 4° C. Next, the supernatant was collected and protein concentrations were determined using a BCA protein assay kit (Thermo Scientific, 23227). […] The band density of each protein was quantified by the Bio-Rad Quantity One software and the relative optical density was analyzed relative to the loading control β-actin on the same membrane.

human A53T α-synuclein = molecular target: T2, human A53T α-synuclein (Homo sapiens, UniProt P37840, A53T); assay: Brain α-synuclein ELISA in M83 transgenic mice after i.p. injection; format: in vivo, mouse; details: 40 mg/kg i.p.
T2 construct: tissue The Jackson Laboratory 004479; host or cells: brain of M83 hemizygous transgenic mice
Procedure: Tat-βsyn-degron peptide was also shown to decrease α-synuclein levels in vivo, using M83 transgenic mice that overexpress mutant human A53T α-synuclein. M83 mice, injected intra-peritoneally (i.p.) with 40 mg/kg Tat-βsyn-degron peptide, were sacrificed at time points of 6, 12, 24, and 48 hrs and α-synuclein levels in the brain were measured by ELISA.
Male M83 hemizygous mice overexpressing the human A53T α-synuclein mutant (12 weeks old, 25-30 g, 004479, The Jackson Laboratory) were housed individually and maintained on a 12/12 hrs light/dark cycle at 22° C. ambient temperature and with unlimited access to food and water. Housing, breeding, and procedures were performed according to the Canadian Council on Animal Care and were approved by the McGill University Animal Care Committee.
Brains were lysed (1 g tissue per 3 mL solution) in a buffer solution (50 mM Tris pH 8, 150 mM NaCl, 5 mM EDTA, 1% NP-40, 0.5% sodium deoxycholate, 0.1% SDS, protease and inhibitor cocktail [aprotinin, leupeptin and benzamidine], and phosphatase inhibitor cocktail) on ice. Lysates were homogenized at 1,600 g several times, sonicated and finally centrifuged at 100,000 g for 30 min. The supernatant was collected and processed with the Human α-synuclein ELISA kit (KHB0061, ThermoFisher Scientific) and analyzed with a Tecan microplate reader (Tecan Infinite M200 Pro, life science). The level of α-synuclein was expressed as ng/ml total sample.

[1] = system: β2/3 subunit of the GABAA receptor; assay: GABAA receptor β2/3 subunit level in cortical cultures, immunoblot; format: cell-based, rat; details: 50 μM, 24 hrs
Procedure: as §1, §2

YGRKKRRQRRRRTKSGVYLVGRRRG (The sequence is synthesized (YGRKKRRQRRRRTKSGVYLVGRRRG)) [Tat-βsyn-degron]
endogenous α-synuclein protein levels (endogenous α-synuclein): induced a robust reduction in endogenous α-synuclein protein levels
time of peak effect on brain α-synuclein (human A53T α-synuclein): around 24 hrs
α-synuclein levels in the brain (ELISA) (human A53T α-synuclein; 12 hrs): reduction of α-synuclein levels
α-synuclein levels in the brain (ELISA) (human A53T α-synuclein; 24 hrs): reduction of α-synuclein levels
expression level of β2/3 subunit of the GABAA receptor [1]: did not affect the expression levels
